Test results taken from patent publication US20200173986A1 (HUGEL, published 2020).

Experiments:
[1] = molecular target: T1, recombinant GST-SNAP25197 (UniProt P60880 1-197); experiment: direct ELISA; signal on GST-SNAP25197 against GST-SNAP25FL as reference
T1 construct: not shown: glutathione S-transferase (GST) tag

[2] = molecular target: T1, recombinant GST-SNAP25197; experiment: BLI (Octet Red96); anti-GST biosensor dipped in 250 nM GST-SNAP25197, IgG as analyte
[3] = molecular target: T1, recombinant GST-SNAP25197; experiment: BLI (Octet Red96); IgG on AMC biosensor, GST-SNAP25197 as analyte; koff is the instrument's lowest limit, tentatively given
[4] = molecular target: T1, recombinant GST-SNAP25197; experiment: BLI (Octet Red96); anti-GST biosensor dipped in 125 nM GST-SNAP25197, IgG as analyte
[5] = molecular target: T2, recombinant GST-SNAP25FL (UniProt P60880 1-206); experiment: BLI (Octet Red96); IgG on AMC biosensor, GST-SNAP25FL as analyte; KD from a tentative koff limit
T2 construct: also called GST-SANP25FL; not shown: glutathione S-transferase (GST) tag
T2 sequence (P60880 whole entry): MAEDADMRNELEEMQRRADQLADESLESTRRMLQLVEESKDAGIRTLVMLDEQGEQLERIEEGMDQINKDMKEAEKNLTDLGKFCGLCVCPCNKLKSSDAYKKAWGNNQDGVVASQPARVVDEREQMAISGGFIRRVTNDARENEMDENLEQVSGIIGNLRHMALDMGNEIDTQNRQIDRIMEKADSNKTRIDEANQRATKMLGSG

T1 sequence (P60880 1-197): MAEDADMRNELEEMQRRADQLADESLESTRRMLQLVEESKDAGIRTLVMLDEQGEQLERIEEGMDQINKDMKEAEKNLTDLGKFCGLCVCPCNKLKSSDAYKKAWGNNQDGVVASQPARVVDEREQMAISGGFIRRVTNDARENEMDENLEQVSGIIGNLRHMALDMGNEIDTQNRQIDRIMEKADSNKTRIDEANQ

Binder | Ratio197/206 (A450 with SNAP25197 to A450 with SNAP25FL) [1] [ratio] | koff [3] [s⁻¹] | other results
D6 IgG (antibody, V domains shown) VH: EVQLQQSGPELVKPGASVKISCKASGYTFTDYNMHWVKQSHGKSLEWIGYIYPYNGDTGYNQKFKSKATLTVDNSSSTAYMELRSLTSEDSAVYYCVRSGDYWGQGTTLTVSS VL: not shown | 0.02 |  | 
C7 IgG (antibody, V domains shown, also called C7 IgG2a) VH: QVQLVETGGGLVQPKGSLKLSCAASGFTFNTNAMNWVRQAPGKGLEWVARIRSKSNNYATYYADSVKDRFTISRDDSQSLLYLQMNNLKTEDTAMYYCVYGRSYGGLSYWGQGTLVTVSA VL: DIVMTQSPASLAVSLGQRATISCRASKSVSSSGYSYMHWYQQKPGQPPKLLIYLASNLESGVPARFSGSGSGTDFTLNIHPVEEEDAATYYCQHSRELPLTFGAGTKLELK | 1040 | ≤ 1e-07 | Kd [2]: 4.41 nM; koff [2]: 0.00122 s⁻¹; Kd [4]: 19.3 nM; koff [4]: 0.00494 s⁻¹
C14 IgG (antibody, V domains shown) VH: EVKLVESGGGLVQPKGSLKLSCAASGFTFNTNAMNWVRQAPGKGLEWVARIRSKSDNYATYYADSVKDRFTISRDDSPSMLYLQMNNLKTEDTAMYYCVYGRSYGGLGYWGQGTLVTVSA VL: DIVLTQSPASLAVSLGQRATISCRASKSVSTSGYSYVHWYQQKPGQPPKLLIYLASNLESGVPARFSGSGSGTDFTLNIHPVEEEDAATYYCQHSRELPLTFGAGTKLELK | 953 |  | 
B4 IgG (antibody, V domains shown, also called B4 IgG1; clone 4) VH: EVKLVESGGGLVKPGGSLKLSCAASGFTFSNYGMSWVRQTPEKRLEWVATISSGGSYTYYPDSVKGRFTISRDNAKNTLYLQMSSLRSEDTAMYYCARHEGGGNPYFDYWGQGTTLTVSS VL: DVLMTQTPLSLPVSLGDQASISCRSSQSLVHSNGNTYLHWYLQKPGQSPKLLIYKVSNRFSGVPDRFSGSGSGTDFTLKISRVEAEDLGVYFCSQNTLVPWTFGGGTKLEIK | 0.83 |  | Kd [5]: ≤ 0.00105 nM
B23 IgG (antibody, V domains shown, also called B23 IgG1) VH: EVQLQQSGAELVRPGASVKLSCTASGINIKDYYMHWMKQRPEQDLEWIGWIDPGNGDAEYAPKFQGKATMTADTSSNTAYLQLSSLTSEDTAVYYCNEIAYWGQGTLVTVSA VL: not shown | 0.92 |  | Kd [5]: ≤ 0.00104 nM
C4 IgG (antibody, V domains shown) VH: DVKLQESGPGLVKPSQSLSLTCTVTGYSITSDYAWNWIRQFPGNKLEWMGYISYSVGTRYNPSLKSRISITRDTSKNQFFLLLKSVTNEDTATYFCARKGEYGFAYWGQGTLVTVSA VL: DIVMTQSPASLAVSLGQRATISCRASKSVSTSGYSYMHWYQQKPGQPPKLLIYLASNLESGVPARFSGSGSGTDFTLNIHPVEEEDAATYYCQHSRELPLTFGAGTKLELK | 919 | ≤ 1e-07 | 
C24 IgG (antibody, V domains shown) VH: EVKLVESGGGLVQPKGSLKLSCAASGYTFNTYAMNWVRQAPGKGLEWVARIRSKSNNYTTYYADSVKDRFTISRDDSQSMLYLQINNLKTEDTAMYYCVGQILYYYVGSPAWFAYWGQGTLVTVSA VL: DIVMTQSPASLAVSLGQRATISCRASKSVSTSGYSYMHWYQQKPGQPPKLLIFLASNLESGVPARFSGSGSGTDFTLNIHPVEEEDAATYYCQHSRELPWTFGGGTKLEIK | 973 | ≤ 1e-07 | 
C16 IgG (antibody, V domains shown, also called C16 IgG1) VH: EVQLQQSGAELARPGASVQMSCKAFGYTFTNYTMHWVRQRPGQGLEWIGFINPSSDYTNYNQKFKDKATLSADKSSSTAYMQLSSLTSEDSAVYYCARRIFYNGRTYAAMDYWGQGTSVTVSS VL: DIVMTQSPASLAVSLGQRATISCRASKSVSSSGYSYMHWYQQKPGQPPKLLIYLASNLESGVPARFSGSGSGTDFTLNIHPVEEEDAATYYCQHSRELPLTFGAGTKLELK | 996 |  | 
D3 IgG (antibody, V domains shown) VH: EVQLEESGGGLVQPGGSLKLSCAASGFTFSNYGMSWVRQTPDKRLELVATINSNGGTTYYPDSVKGRFTISRDNAKNTLYLQMSSLKSEDSAMYYCARDRDAMDYWGQGTSVTVSS VL: DVLMTQTPLSLPVSLGDQASISCRSSQSIVNSHGNTYLEWYLQKPGQSPKLLIYKVSNRFSGVPDRFSGSGSGTDFTLKISRVEAEDLGVYYCFQGSHVPWTFGGGTKLEIK | 12.9 |  | 
D2 IgG (antibody, V domains shown) VH: DVKLQESGPGLVKPSQSLSLTCSVTGYSITSGYYWNWIRQFPGNKLEWMGYIRYDGSNNYNPSLKNRISITRDTSKNQFFLKLNSVTTEDTASYYCARDRDSSYYFDYWGQGTALTVSS VL: DIVMTQSSSYLSVSLGGRVTITCKASDHINNWLAWYQQKPGNAPRLLISDTTSLETGVPSRFSGSGSGKDYTLSITSLQTEDVATYYCQQYWSAPPTFGGGTKLEIK | 0.03 |  | 
